B1: CPEB3 Ribozyme (parent)
chain: GGGGGCCACAGCAGAAGCGUUCACGUCGCGGCCCCUGUCAGAUUCUGGUGAAUCUGCGAAUUCUGCUGU

Consider 39 variants from the RNAGym collection of RNA variant scans (doi:10.7554/elife.80360).

In the data set the parent is B1. In words: self-cleavage, relative activity (ratio to wild type); higher = more cleavage; co-transcriptional.
For GGGGGCCACAGCAGAAGCGUUCACGUCGCGGCCCUUAUCAGAUUCUGGUGAAUCUGCGAAUUCUGCUGU [C35U G37A], the self-cleavage was 0.253.

Turning to GGGGGCCACAGCAGAAGCGUUCACGUCGCGGCCCGUGUCAGAUUCUGGUGAAUCUGCGAAUACUGCUGU [C35G U62A], the self-cleavage came to 0.313.

As to GGGGGCCACAGCAGAAGCGUUCACGUCGCGGCCCGUGUCAGAUUCUGGUGAAUCUGCGAAUGCUGCUGU [C35G U62G], the self-cleavage turned out to be 0.308.

With GGGGGCCACAGCAGAAGCGUUCACGUCGCGGCCCUUGUCAGAUUCUGGUGAAUCUGCGCAUUCUGCUGU [C35U A59C], the self-cleavage stood at 0.41.

Regarding GGGGGCCACAGCAGAAGCGUUCACGUCGCGGCCCUUGUCAGAUUCUGGUGAAUCUGCGUAUUCUGCUGU [C35U A59U], the self-cleavage worked out at 0.564.

For the variant GGGGGCCACAGCAGAAGCGUUCACGUCGCGGCCCUUGUCAGAUUCUGGUGAAUCUGCGGAUUCUGCUGU [C35U A59G], the self-cleavage is 0.999.

In the case of GGGGGCCACAGCAGAAGCGUUCACGUCGCGGCCCUUGUCAGAUUCUGGUGAAUAUGCGAAUUCUGCUGU [C35U C54A], the self-cleavage was determined as 0.744.

For the variant GGGGGCCACAGCAGAAGCGUUCACGUCGCGGCCCUUGUCAGAUUCUCGUGAAUCUGCGAAUUCUGCUGU [C35U G47C], the self-cleavage amounted to 0.967.

For GGGGGCCACAGCAGAAGCGUUCACGUCGCGGCCCUUGUCAGAUUCUAGUGAAUCUGCGAAUUCUGCUGU [C35U G47A], the self-cleavage is 0.918.

GGGGGCCACAGCAGAAGCGUUCACGUCGCGGCCCUUGUCAGAUUCUUGUGAAUCUGCGAAUUCUGCUGU [C35U G47U]: the self-cleavage came to 1.01.

For GGGGGCCACAGCAGAAGCGUUCACGUCGCGGCCCUUGUCAGAUUGUGGUGAAUCUGCGAAUUCUGCUGU [C35U C45G], the self-cleavage is 0.956.

GGGGGCCACAGCAGAAGCGUUCACGUCGCGGCCCGUGUCAGAUUCUGGUGAAUCUGCGAAUUCCGCUGU [C35G U64C]: the self-cleavage amounted to 0.274.

With GGGGGCCACAGCAGAAGCGUUCACGUCGCGGCCCGUGUCAGAUUCUGGUGAAUCUGCGAAUUCGGCUGU [C35G U64G], the self-cleavage worked out at 0.304.

Regarding GGGGGCCACAGCAGAAGCGUUCACGUCGCGGCCCGUGUCAGAUUCUGGUGAAUCUGCGAAUUCUGCAGU [C35G U67A], the self-cleavage came to 0.638.

On to GGGGGCCACAGCAGAAGCGUUCACGUCGCGGCCCGUGUCAGAUUCUGGUGAAUCUGCGAAUUCUGCGGU [C35G U67G], for which the self-cleavage came to 0.574.

Turning to GGGGGCCACAGCAGAAGCGUUCACGUCGCGGCCCUUGUGAGAUUCUGGUGAAUCUGCGAAUUCUGCUGU [C35U C39G], the self-cleavage turned out to be 0.878.

Consider GGGGGCCACAGCAGAAGCGUUCACGUCGCGGCCCUUGUAAGAUUCUGGUGAAUCUGCGAAUUCUGCUGU [C35U C39A], for which the self-cleavage was determined as 0.782.

As for GGGGGCCACAGCAGAAGCGUUCACGUCGCGGCCCGUGUCAGAUUCUGGUGAAUCUGCGAAUUCUGUUGU [C35G C66U], the self-cleavage turned out to be 0.474.

On to GGGGGCCACAGCAGAAGCGUUCACGUCGCGGCCCGUGUCAGAUUCUGGUGAAUCUGCGAAUUCUGAUGU [C35G C66A], for which the self-cleavage worked out at 0.308.

With GGGGGCCACAGCAGAAGCGUUCACGUCGCGGCCCGUGUCAGACUCUGGUGAAUCUGCGAAUUCUGCUGU [C35G U43C], the self-cleavage was 0.372.

For GGGGGCCACAGCAGAAGCGUUCACGUCGCGGCCCGUGUCAGAAUCUGGUGAAUCUGCGAAUUCUGCUGU [C35G U43A], the self-cleavage was determined as 0.335.

Regarding GGGGGCCACAGCAGAAGCGUUCACGUCGCGGCCCGUGUCAGAGUCUGGUGAAUCUGCGAAUUCUGCUGU [C35G U43G], the self-cleavage was found to be 0.31.

Take GGGGGCCACAGCAGAAGCGUUCACGUCGCGGCCCGUGUCAGAUUCUGGUGAACCUGCGAAUUCUGCUGU [C35G U53C]: the self-cleavage is 0.342.

Consider GGGGGCCACAGCAGAAGCGUUCACGUCGCGGCCCGUGUCAGAUUCUGGUGAAGCUGCGAAUUCUGCUGU [C35G U53G], for which the self-cleavage worked out at 0.214.

As to GGGGGCCACAGCAGAAGCGUUCACGUCGCGGCCCGUGUCAGAUUCUGGUUAAUCUGCGAAUUCUGCUGU [C35G G50U], the self-cleavage came to 0.443.

With GGGGGCCACAGCAGAAGCGUUCACGUCGCGGCCCGUGUCAGAUUCUGGUAAAUCUGCGAAUUCUGCUGU [C35G G50A], the self-cleavage is 0.36.

For GGGGGCCACAGCAGAAGCGUUCACGUCGCGGCCCGUGUCAGAUCCUGGUGAAUCUGCGAAUUCUGCUGU [C35G U44C], the self-cleavage turned out to be 0.357.

On to GGGGGCCACAGCAGAAGCGUUCACGUCGCGGCCCGUGUCAGAUACUGGUGAAUCUGCGAAUUCUGCUGU [C35G U44A], for which the self-cleavage turned out to be 0.346.

As for GGGGGCCACAGCAGAAGCGUUCACGUCGCGGCCCGUGUCAGAUUCUGGUGAAUCUGCGAAUUCUGCUCU [C35G G68C], the self-cleavage was 0.77.

GGGGGCCACAGCAGAAGCGUUCACGUCGCGGCCCGUGUCAGAUUCUGGUGAAUCUGCGAAUUCUGCUAU [C35G G68A]: the self-cleavage was determined as 0.741.

In the case of GGGGGCCACAGCAGAAGCGUUCACGUCGCGGCCCUUGUCAGAUUCUGGUGAUUCUGCGAAUUCUGCUGU [C35U A52U], the self-cleavage came to 0.973.

Regarding GGGGGCCACAGCAGAAGCGUUCACGUCGCGGCCCUUGUCAGAUUCUGGUGAGUCUGCGAAUUCUGCUGU [C35U A52G], the self-cleavage was found to be 0.974.

For GGGGGCCACAGCAGAAGCGUUCACGUCGCGGCCCGUGUCAGAUUCCGGUGAAUCUGCGAAUUCUGCUGU [C35G U46C], the self-cleavage came out at 0.378.

As to GGGGGCCACAGCAGAAGCGUUCACGUCGCGGCCCGUGUCAGAUUAUGGUGAAUCUGCGAAUUCUGCUGU [C35G C45A], the self-cleavage came out at 0.475.

Consider GGGGGCCACAGCAGAAGCGUUCACGUCGCGGCCCGUGUCAGAUUGUGGUGAAUCUGCGAAUUCUGCUGU [C35G C45G], for which the self-cleavage came out at 0.452.

On to GGGGGCCACAGCAGAAGCGUUCACGUCGCGGCCCGUGUCAGAUUUUGGUGAAUCUGCGAAUUCUGCUGU [C35G C45U], for which the self-cleavage was 0.483.

With GGGGGCCACAGCAGAAGCGUUCACGUCGCGGCCCGUGUCAGAUUCUGGUGAAUCUACGAAUUCUGCUGU [C35G G56A], the self-cleavage worked out at 0.297.

Turning to GGGGGCCACAGCAGAAGCGUUCACGUCGCGGCCCGUGUCAGAUUCUGGUGAAUCUUCGAAUUCUGCUGU [C35G G56U], the self-cleavage turned out to be 0.307.

With GGGGGCCACAGCAGAAGCGUUCACGUCGCGGCCCGUGUCAGAUUCUGGUGAAUCUCCGAAUUCUGCUGU [C35G G56C], the self-cleavage is 0.331.
